Source: patent US20260029420A1 (Hoffmann-La Roche, published 2026)

How the values were obtained:
Human_CB2-pANITA3.1 = target: T1, Human_CB2-pANITA3.1 (human); test: Western blot, cell lysate
T1 construct: Expressed on transfected HEK293 cells; tested on fixed cells (IF) or in lysate (WB, IP); also called pANITA3.1 hCB2 (JB175); hCB2 (JB175)
Protocol: For Western blot analysis, cells were collected using enzyme free dissociation buffer (Cell dissociation buffer enzyme-free Hanks'-based, Gibco), and washed two times with PBS. To prepare cell lysate, 10⁶ cells were lysed with 0.1 ml of lysis buffer (1% NP40, 10% glycerol, 2 mM EDTA, 137 mM NaCl, 20 mM TrisHCl, pH8, Protease Inhibitors) for 10 min on ice. The lysate was cleared by centrifugation at 20′000 g for 5 min. For SDS-PAGE cell lysate was resolved on precast 4-12% gradient gels (NuPAGE® Novex 4-12% Bis-Tris Gel, Invitrogen) with MES running buffer according to the manufacturer's directions. The separation of proteins was visualized by Colloidal Blue staining. The proteins were electrophoretically transferred to nitrocellulose membrane using a dry-blotting system (iBlot, Invitrogen). After blocking the membrane for 16 h in blocking buffer (5% Milk in PBS) at 4° C., specific proteins were detected with appropriate dilutions of mAbs in blocking buffer for 1 h at approximately 20° C. The membrane was then washed four times for 5 minutes in blocking buffer and incubated with horseradish peroxidase conjugated anti-mouse IgG mAb (GAM/IgG (g-chain)/HRP, Sigma, A9917) diluted 1:10'000 in blocking buffer at approximately 20° C. for 1 h. After washing again, blots were developed using ECL Western blotting detection reagents (ECL Western Blotting Substrate, Pierce) to visualize bands.

Mouse_CB2-pANITA3.1 = target: T2, Mouse_CB2-pANITA3.1 (mouse); test: immunofluorescence, fixed cells
T2 construct: Fusion of the mouse CB2 N-terminal extracellular domain with mouse glycophorin A transmembrane and His-tagged cytoplasmic domains; Expressed on transfected HEK293 cells; also called pANITA3.1 mCB2 (JB176); mCB2 (JB176)
Protocol: (§1) For IF analysis, methanol-fixed cells were incubated for 20 min in a humid chamber at 37° C. with the respective hCB2 and mCB2 clones. After rinsing twice and washing for 15 min in PBS, 125 μg/ml FITC-conjugated […] anti-mouse IgG antibodies (RAM/IgG (H+L)/FITC, Nordic

human CB1 (full length) = target: T3, human CB1 (full length) (human, UniProt P21554 1-472); test: immunofluorescence, fixed cells
T3 construct: whole, on cells; In Western blot and immunoprecipitation the protein stood in cell lysate; also called hCB1; CHODukx CRE hCB1 Cl.20
Protocol: as §1

mouse CB2 (full length) = target: T4, mouse CB2 (full length) (mouse, UniProt P47936 1-347); test: immunofluorescence, fixed cells
T4 construct: whole, on cells; In Western blot and immunoprecipitation the protein stood in cell lysate; also called mCB2; CHO-A2 mCB2
Protocol: as §1

human CB2 (full length) = target: T5, human CB2 (full length) (human, UniProt P34972 1-360); test: flow cytometry, CHO-DUKX_HOMSA_CNR2_Clone_90_CRE-Luc cells against CHO-DUKX parental cells
T5 construct: whole, on cells; In Western blot and immunoprecipitation the protein stood in cell lysate; also called hCB2; CHODukx CRE hCB2 Cl.90
Description: For detection an F(ab)₂ goat-anti Mouse IgG₃ PE antibody was used.

T3 sequence (P21554 whole entry): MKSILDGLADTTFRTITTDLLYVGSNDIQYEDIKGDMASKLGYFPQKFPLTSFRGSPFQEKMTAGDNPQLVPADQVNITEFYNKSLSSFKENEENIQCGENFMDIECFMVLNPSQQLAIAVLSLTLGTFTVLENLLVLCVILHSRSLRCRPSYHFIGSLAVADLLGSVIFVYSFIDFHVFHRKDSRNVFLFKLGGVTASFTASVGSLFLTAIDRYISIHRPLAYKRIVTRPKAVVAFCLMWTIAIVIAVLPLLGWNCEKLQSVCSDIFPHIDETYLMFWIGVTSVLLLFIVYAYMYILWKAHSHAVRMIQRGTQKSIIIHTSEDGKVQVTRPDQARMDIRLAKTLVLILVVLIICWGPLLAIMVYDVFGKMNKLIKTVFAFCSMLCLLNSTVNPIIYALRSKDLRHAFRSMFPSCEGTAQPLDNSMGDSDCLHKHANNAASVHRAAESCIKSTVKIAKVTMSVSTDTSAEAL
T1 sequence (chain, as listed by the source): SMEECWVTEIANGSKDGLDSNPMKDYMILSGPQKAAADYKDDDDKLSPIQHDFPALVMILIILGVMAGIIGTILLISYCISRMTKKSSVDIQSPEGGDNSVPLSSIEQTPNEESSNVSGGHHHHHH
T2 sequence (chain, as listed by the source): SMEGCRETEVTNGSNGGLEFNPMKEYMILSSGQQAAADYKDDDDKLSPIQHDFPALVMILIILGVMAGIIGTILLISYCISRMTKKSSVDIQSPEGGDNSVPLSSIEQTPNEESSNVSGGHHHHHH
T5 sequence (P34972 whole entry): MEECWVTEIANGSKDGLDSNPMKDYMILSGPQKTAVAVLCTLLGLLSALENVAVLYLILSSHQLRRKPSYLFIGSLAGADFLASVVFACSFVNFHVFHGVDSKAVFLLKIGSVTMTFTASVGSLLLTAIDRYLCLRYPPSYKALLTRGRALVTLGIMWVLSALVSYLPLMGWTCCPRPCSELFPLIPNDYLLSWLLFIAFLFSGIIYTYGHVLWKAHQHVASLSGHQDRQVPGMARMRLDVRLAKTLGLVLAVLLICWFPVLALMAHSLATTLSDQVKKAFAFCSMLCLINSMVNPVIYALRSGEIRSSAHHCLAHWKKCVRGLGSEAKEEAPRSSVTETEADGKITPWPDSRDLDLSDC
T4 sequence (P47936 whole entry): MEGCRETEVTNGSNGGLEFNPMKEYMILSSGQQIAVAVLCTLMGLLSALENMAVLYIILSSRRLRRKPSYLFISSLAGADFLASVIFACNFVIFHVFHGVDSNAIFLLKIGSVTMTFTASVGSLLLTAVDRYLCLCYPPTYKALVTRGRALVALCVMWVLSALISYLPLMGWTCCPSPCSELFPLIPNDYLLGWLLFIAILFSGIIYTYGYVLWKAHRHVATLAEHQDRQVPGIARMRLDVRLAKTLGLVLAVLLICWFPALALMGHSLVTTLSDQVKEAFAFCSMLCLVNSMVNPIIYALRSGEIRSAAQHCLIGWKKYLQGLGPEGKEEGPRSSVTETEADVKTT

B1: Anti-CB2 clone 1/622 (antibody, IgG3, V domains shown)
VH: EVQLQQSGPELVKPGASVKISCKTSGYTFTEYTMHWVRQSHGKSLEWIGGIDRYNGDTYYNQKFKDKATLTVDRSSSTAYMELRSLTSEDSAVYFCARNGAMDYWGQGISVTVSS
VL: DVVMTQTPLSLPVSLGDQASISCRSSQSLVHSNGNTYLHWFLQKPGQSPKLLIYKVSIRFSGVPDRFSGSGSGTDFTLKISRVEAEDLGVYFCSQSTHVPPLTFGAGTKLELKR
B1: binds (Human_CB2-pANITA3.1); no binding (Mouse_CB2-pANITA3.1); no binding (human CB1 (full length)). The binding result (mouse CB2 (full length)) was “no binding” and the “signal to background ratio” value (human CB2 (full length)) was 10.
